In the assay the test system is FK. The experiment in a line: dcII production from FK by C-glycosyltransferase candidates and GtCGT mutants in FK-producing E. coli, flask culture. Type of assay: cell-based. As to conditions: for dcII production: FK-producing E. coli strain; for KA production compared with wild-type GtCGT: mutants transformed into FK strains. Here is the method:
Flask culture was carried out under the following conditions. Colonies were seeded into 10 mL of LB medium supplemented with appropriate concentrations of antibiotics, followed by culture overnight at 37° C. The culture fluid thus prepared was passaged into a 250 mL baffled flask containing 50 mL of R/2 medium supplemented with 3 g/L yeast extract and 20 g/L glucose (with 0.45 g/L ascorbic acid if necessary), followed by culture at 30° C. and 200 rpm. The composition of R/2 medium (pH 6.8) was as follows (per liter): 2 g of (NH4)2HPO4, 6.75 g of KH2PO4, 0.85 g of citric acid, 0.7 g of MgSO4·7H2O, and 5 ml of trace metal solution (TMS) [10 g of FeSO4·7H2O, 2.25 g of ZnSO4·7H2O, 1 g of CuSO4·5H2O, 0.5 g of MnSO4·5H2O, 0.23 g of Na2B4O7·10H2O, 2 g of CaCl2·2H2O, and 0.1 g of (NH4)6Mo7O24 per liter of 5 M HCl]. When OD600 of the culture fluid reached 0.6-0.8, 1 mM isopropyl β-D-1-thiogalactopyranoside (IPTG) was added to induce exogenous gene expression, followed by culture for 48 hours.
After culture, production analysis was performed under the following conditions. After flask culture, 50 mL of the culture fluid was centrifuged at 4,000 g for 30 minutes, and then the supernatant was desalted and concentrated. Here, Oasis HLB cartridges (Water) were used. The supernatant was concentrated 1-fold for FK, 30-fold for KA, 45-fold for dell, and 200-fold for carminic acid. The concentrated sample was re-dissolved in an appropriate volume of DMSO and impurities were then removed therefrom using a 0.22 μm PTFE filter. The prepared sample was analyzed by MS (LC/MSD VL; Agilent) coupled with HPLC (1100 series; Agilent). An Eclipse XDB-C18 column was used, 0.1% formic acid was used as buffer A, and methanol was used as buffer B. Analysis was performed in an ESI negative mode. For more accurate analysis of carminic acid, LC-MS/MS was performed using an HPLC Triple Quadrupole Mass Spectrometer (LCMS-8050, Shimadzu) (MRM mode).
Flask culture started by seeding colonies from LB agar plates into test tubes containing 10 mL of LB. As such, an appropriate concentration of antibiotics was added, followed by culture overnight at 37° C. at 220 rpm. 1 mL of the seed culture thus prepared was inoculated into a 250 mL baffled flask containing 50 mL of R/2 medium (supplemented with 3 g/L yeast extract and 20 g/L glucose), followed by culture at 30° C. and 200 rpm. The composition of R/2 medium was as follows (pH 6.8, per 1 L): 2 g of (NH4)2HPO4, 6.75 g of KH2PO4, 0.85 g of citric acid, 0.8 g of MgSO4·7H2O, and 5 ml of trace metal solution (TMS). The composition of TMS was as follows (based on 0.1 M HCl, per 1 L): 10 g of FeSO4·7H2O, 2.25 g of ZnSO4·7H2O, 1 g of CuSO4·5H2O, 0.58 g of MnSO4·5H2O, 0.02 g of Na2B4O7·10H2O, 2 g of CaCl2·2H2O, and 0.1 g of (NH4)6Mo7O24·4H2O. When OD600 of the culture fluid reached 0.6-0.8, 0.5 mM IPTG was added to induce exogenous enzyme expression, followed by culture for 48 hours. In all experiments for producing flavokermesic acid, kermesic acid, dcII, and carminic acid, 0.45 g/L of ascorbic acid was further added.
The production of carminic acid (CA) from FK was performed by two biosynthesis pathways, both of which require monooxygenase and C-glycosyltransferase. FK may be oxidized into KA or may be C-glycosylated into dcII. […] In order for the enzyme to have activity, however, it must be glycosylated, and since it also has a transmembrane helix and a signal peptide, successful expression in cells such as E. coli is considered difficult.
For the enzymes selected above, pCDF-DcCGT, pCDF-MiCGT, pCDF-SfCGT, pCDF-EnCGT, pCDF-OsCGT, pCDF-FeCGT, pCDF-GmCGT, pCDF-AvCGT, pCDF-AvCGT, pCDF-ZmCGT, and pCDF-GtCGT were constructed, and all genes except for the iroB gene amplified from genomic DNA of E. coli Nissle using the iroB_gib_F primer and the iroB_gib_R primer were artificially synthesized and inserted into the NdeI site of the pCDFDuet-1 plasmid using Gibson assembly. […]

“Also recorded” adds a separate entry of the source.

B1: GtCGT: wild-type C-glycosyltransferase GtUF6CGT1 from Gentiana triflora (SEQ ID NO: 1) (protein, listed as Gentiana triflora)
chain: MGSLTNNDNLHIFLVCFIGQGVVNPMLRLGKAFASKGLLVTLSAPEIVGTEIRKANNLNDDQPIKVGSGMIRFEFFDDGWESVNGSKPFDVWVYINHLDQTGRQKLPIMLKKHEETGTPVSCLILNPLVPWVADVADSLQIPCATLWVQSCASFSAYYHYHHGLVPFPTESEPEIDVQLPGMPLLKYDEVPDYLHPRTPYPFFGTNILGQFKNLSKNFCILMDTFYELEHEIIDNMCKLCPIKPIGPLFKIPKDPSSNGITGNFMKVDDCKEWLDSRPTSTVVYVSVGSVVYLKQEQVTEMAYGILNSEVSFLWVLRPPSKRIGTEPHVLPEEFWEKAGDRGKVVQWSPQEQVLAHPATVGFLTHCGWNSTQEAISSGVPVITFPQFGDQVTNAKFLVEEFKVGVRLGRGELENRIITRDEVERALREITSGPKAEEVKENALKWKKKAEETVAKGGYSERNLVGFIEEVARKTGTK
On to B1, for which, where the note is “FK-producing E. coli”, the “dcII production from FK (in words)” value is recorded as “able to successfully convert FK into dell”. Further, the dcII production reads like this: (flask culture) 0.13 mg CA eq/L; (galU, pgm and ndk overexpressed) 0.30 mg CA eq/L.

B2: R322D (protein, listed as Gentiana triflora)
chain: MGSLTNNDNLHIFLVCFIGQGVVNPMLRLGKAFASKGLLVTLSAPEIVGTEIRKANNLNDDQPIKVGSGMIRFEFFDDGWESVNGSKPFDVWVYINHLDQTGRQKLPIMLKKHEETGTPVSCLILNPLVPWVADVADSLQIPCATLWVQSCASFSAYYHYHHGLVPFPTESEPEIDVQLPGMPLLKYDEVPDYLHPRTPYPFFGTNILGQFKNLSKNFCILMDTFYELEHEIIDNMCKLCPIKPIGPLFKIPKDPSSNGITGNFMKVDDCKEWLDSRPTSTVVYVSVGSVVYLKQEQVTEMAYGILNSEVSFLWVLRPPSKDIGTEPHVLPEEFWEKAGDRGKVVQWSPQEQVLAHPATVGFLTHCGWNSTQEAISSGVPVITFPQFGDQVTNAKFLVEEFKVGVRLGRGELENRIITRDEVERALREITSGPKAEEVKENALKWKKKAEETVAKGGYSERNLVGFIEEVARKTGTK
In the case of B2, the “KA production compared with wild-type GtCGT” value (flask culture) is “higher KA production than wild-type GtCGT”.

B3: L164G: GtCGT single mutant L164G (protein, listed as Gentiana triflora)
chain: MGSLTNNDNLHIFLVCFIGQGVVNPMLRLGKAFASKGLLVTLSAPEIVGTEIRKANNLNDDQPIKVGSGMIRFEFFDDGWESVNGSKPFDVWVYINHLDQTGRQKLPIMLKKHEETGTPVSCLILNPLVPWVADVADSLQIPCATLWVQSCASFSAYYHYHHGGVPFPTESEPEIDVQLPGMPLLKYDEVPDYLHPRTPYPFFGTNILGQFKNLSKNFCILMDTFYELEHEIIDNMCKLCPIKPIGPLFKIPKDPSSNGITGNFMKVDDCKEWLDSRPTSTVVYVSVGSVVYLKQEQVTEMAYGILNSEVSFLWVLRPPSKRIGTEPHVLPEEFWEKAGDRGKVVQWSPQEQVLAHPATVGFLTHCGWNSTQEAISSGVPVITFPQFGDQVTNAKFLVEEFKVGVRLGRGELENRIITRDEVERALREITSGPKAEEVKENALKWKKKAEETVAKGGYSERNLVGFIEEVARKTGTK
As for B3, the “KA production compared with wild-type GtCGT” value (flask culture) was “higher KA production than wild-type GtCGT”.

B4: F17G (protein, listed as Gentiana triflora)
chain: MGSLTNNDNLHIFLVCGIGQGVVNPMLRLGKAFASKGLLVTLSAPEIVGTEIRKANNLNDDQPIKVGSGMIRFEFFDDGWESVNGSKPFDVWVYINHLDQTGRQKLPIMLKKHEETGTPVSCLILNPLVPWVADVADSLQIPCATLWVQSCASFSAYYHYHHGLVPFPTESEPEIDVQLPGMPLLKYDEVPDYLHPRTPYPFFGTNILGQFKNLSKNFCILMDTFYELEHEIIDNMCKLCPIKPIGPLFKIPKDPSSNGITGNFMKVDDCKEWLDSRPTSTVVYVSVGSVVYLKQEQVTEMAYGILNSEVSFLWVLRPPSKRIGTEPHVLPEEFWEKAGDRGKVVQWSPQEQVLAHPATVGFLTHCGWNSTQEAISSGVPVITFPQFGDQVTNAKFLVEEFKVGVRLGRGELENRIITRDEVERALREITSGPKAEEVKENALKWKKKAEETVAKGGYSERNLVGFIEEVARKTGTK
With B4, for the setting “flask culture”, the “KA production compared with wild-type GtCGT” value is given as “higher KA production than wild-type GtCGT”.

B5: Y193F (protein, listed as Gentiana triflora)
chain: MGSLTNNDNLHIFLVCFIGQGVVNPMLRLGKAFASKGLLVTLSAPEIVGTEIRKANNLNDDQPIKVGSGMIRFEFFDDGWESVNGSKPFDVWVYINHLDQTGRQKLPIMLKKHEETGTPVSCLILNPLVPWVADVADSLQIPCATLWVQSCASFSAYYHYHHGLVPFPTESEPEIDVQLPGMPLLKYDEVPDFLHPRTPYPFFGTNILGQFKNLSKNFCILMDTFYELEHEIIDNMCKLCPIKPIGPLFKIPKDPSSNGITGNFMKVDDCKEWLDSRPTSTVVYVSVGSVVYLKQEQVTEMAYGILNSEVSFLWVLRPPSKRIGTEPHVLPEEFWEKAGDRGKVVQWSPQEQVLAHPATVGFLTHCGWNSTQEAISSGVPVITFPQFGDQVTNAKFLVEEFKVGVRLGRGELENRIITRDEVERALREITSGPKAEEVKENALKWKKKAEETVAKGGYSERNLVGFIEEVARKTGTK
For the molecule B5, the “dcII production from FK (in words)” value (FK-producing E. coli) is on record as “second highest concentration of dell”. For the setting “flask culture”, the “KA production compared with wild-type GtCGT” value was “higher KA production than wild-type GtCGT”.

B6: GtCGT^V93Q (protein)
chain: MGSLTNNDNLHIFLVCFIGQGVVNPMLRLGKAFASKGLLVTLSAPEIVGTEIRKANNLNDDQPIKVGSGMIRFEFFDDGWESVNGSKPFDVWQYINHLDQTGRQKLPIMLKKHEETGTPVSCLILNPLVPWVADVADSLQIPCATLWVQSCASFSAYYHYHHGLVPFPTESEPEIDVQLPGMPLLKYDEVPDYLHPRTPYPFFGTNILGQFKNLSKNFCILMDTFYELEHEIIDNMCKLCPIKPIGPLFKIPKDPSSNGITGNFMKVDDCKEWLDSRPTSTVVYVSVGSVVYLKQEQVTEMAYGILNSEVSFLWVLRPPSKRIGTEPHVLPEEFWEKAGDRGKVVQWSPQEQVLAHPATVGFLTHCGWNSTQEAISSGVPVITFPQFGDQVTNAKFLVEEFKVGVRLGRGELENRIITRDEVERALREITSGPKAEEVKENALKWKKKAEETVAKGGYSERNLVGFIEEVARKTGTK
Turning to B6, for the setting “FK strain, flask culture”, the “dcII production increase compared to wild-type GtCGT” value is listed as “about 2.9 fold”. The “dcII production from FK (in words)” value (FK-producing E. coli) is on record as “highest dcII production”. Further, the “KA production compared with wild-type GtCGT” value (flask culture) was “higher KA production than wild-type GtCGT”.

B7: ZmCGT: UGT708A6 from Zea mays which acts as a dual C/O-glycosyltransferase (protein, UniProt A0A096SRM5 1-475, looked up)
UDP-glycosyltransferase 708A6: MAANGGDHTSARPHVVLLPSAGMGHLVPFARLAVALSEGHGCNVSVAAVQPTVSSAESRLLDALFVAAAPAVRRLDFRLAPFDESEFPGADPFFLRFEATRRSAPLLGPLLDAAEASALVTDIVLASVALPVARERGVPCYVLFTSSAAMLSLCAYFPAYLDAHAAAGSVGVGVGNVDIPGVFRIPKSSVPQALHDPDHLFTQQFVANGRCLVACDGILVNTFDAFEPDAVTALRQGSITVSGGFPPVFTVGPMLPVRFQAEETADYMRWLSAQPPRSVVYVSFGSRKAIPRDQLRELAAGLEASGKRFLWVVKSTIVDRDDTADLGGLLGDGFLERVQGRAFVTMGWVEQEEILQHGSVGLFISHCGWNSLTEAAAFGVPVLAWPRFGDQRVNAALVARSGLGAWEEGWTWDGEEGLTTRKEVAKKIKGMMGYDAVAEKAAKVGDAAAAAIAKCGTSYQSLEEFVQRCRDAERK
As to B7, for the setting “FK-producing E. coli”, the “dcII production from FK (in words)” value is reported as “able to successfully convert FK into dell; also recorded: very small amount” and the “main product from FK” value is reported as “O-glycosylated FK”.

Source of the values: patent US20240102068A1, “C-GLYCOSYLTRANSFERASE VARIANTS AND USE THEREOF” (KOREA ADVANCED INSTITUTE OF SCIENCE AND TECHNOLOGY, priority 2021, published 2024).
